The values below come from patent US20070093415A1.

No end group written: not given here. *: point of attachment. Biotin = O=C1N[C@H]2[C@H](CS[C@H]2CCCCC(=O)*)N1 Where only a bound is given, the exact number is not on record here.

For experiment [1], the target named is Aβ1-40 amyloid (amyloid form of the Aβ1-40 peptide). Kind of experiment: ELISA on immobilized Aβ1-40 amyloid, streptavidin-alkaline phosphatase detection. (An ELISA detects its analyte on a solid surface through an enzyme-linked reagent.)
For experiment [2] the target is unchanged. Description: ELISA on immobilized Aβ1-40 amyloid, FIG. 5.

B1: Biotin-… (peptide)
peptide: Biotin-AECDWGKGGRWRLWPGASGKTEACGP
modifications: also: flanking cysteines can form a disulfide bond
Usually Kd stands for a measure of binding affinity in units of concentration. B1: in experiment [1], the Kd stood at 320 nM.

B2: Biotin-… (peptide)
peptide: Biotin-DWGKGGRWRLWPGASGKTEA
As to B2, in experiment [2], the concentration below which no significant binding was seen is above 5 µM.
